Here are results for seven molecules from patent publication US20240400671A1 (published 2024).

One experiment has as its target ABM126. As to the kind of experiment: binding affinity.
For the next experiment, the target named is ABM126.4. In words: binding affinity.
The target in a further experiment is ABM109.2. As to the kind of experiment: binding affinity.
The target of another experiment is ABM 109. In words: SPR. In general terms: In SPR one partner is held on a chip, and binding of the other changes the refractive index at the surface.
A further experiment deals with ABM 109.2. In words: SPR.
A further experiment deals with hABM125.9. As to the kind of experiment: SPR.
The next experiment concerns the target hABM125.10. As to the kind of experiment: SPR.
Another experiment deals with Mouse (NSO). As to the kind of experiment: binding affinity.
The target of the next experiment is Cyno Monkey (HEK). In words: binding affinity.
In experiment [1] the target is T1, recombinant human IL-25 (R&D Systems) (human, UniProt Q9H293 33-177).
T1 chain: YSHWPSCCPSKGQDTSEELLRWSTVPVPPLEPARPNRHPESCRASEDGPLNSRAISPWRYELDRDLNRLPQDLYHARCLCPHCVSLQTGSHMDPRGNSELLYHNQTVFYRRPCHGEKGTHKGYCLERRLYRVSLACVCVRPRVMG
As to the kind of experiment: binding affinity.

The next experiment deals with mouse IL-25 (NS0). As to the kind of experiment: SPR.
Experiment [2] concerns the target T1, recombinant human IL-25 (R&D Systems). In words: SPR.

B1: Human (HEK) (ligand)
chain: T1 chain
For orientation: Kd means a measure of binding affinity in units of concentration. With B1, the dissociation constant Kd with ABM126 came to 0.043 nM; with ABM126.4, 0.024 nM; in the experiment with ABM109.2 it was 1 nM.

B2: human IL-25 (ligand)
chain: T1 chain
For B2, the Kd with ABM 109 turned out to be 0.004 nM; with ABM 109.2, 0.024 nM.

B3: human IL-25 (HEK) (ligand)
chain: T1 chain
With B3, the Kd with hABM125.9 stood at 0.061 nM; with hABM125.10 it was 0.374 nM.

B4: ABM125.38 (antibody, V domains shown)
VH: QVTLKESGPTLVKPTQTLTLTCTFSGFSLSTSGMGVGWIRQPPGKALEWLAHIWWDDVKRYNPSLKSRLTITKDTSGSQVVLTMTNMDPVDTATYYCARTLPHFHDYWGQGTTLTVSS
VL: DIQMTQSPSTLSASVGDRVTITCRASSSVSYMYWYQQKPGKAPKPLIYRTSNLASGVPSRFSGSGSGTEYTLTISSLQPDDFATYYCKQYHSYPPTWTFGGGTKVEIKR
Regarding B4, the Kd with Mouse (NSO) worked out at 0.096 nM; in the experiment with Cyno Monkey (HEK), 0.235 nM.

B5: LNR125.38 (antibody, V domains shown)
VH: B4 VH
VL: B4 VL
Regarding B5, the Kd in experiment [1] was 0.051 nM.

B6: ABM125 (antibody, V domains shown)
VH: QVTLKVSGPGILQPSQTLSLTCSFSGFSLNTSGMGVGWIRQPSGKGLEWLAHIWWDDVKRYNPALKSRLTISKDTSGSQVFLKIASVDTADTATYYCARTLPHFFDYWGQGTTLTVSS
VL: DIQMTQSPAIMSASPGEKVTISCRASSSVSYMYWYQQKSGSSPKPWIYRTSNLASGVPARFSGSGSGTSYSLTISSMEAEDAATYYCKQYHSYPPTWTFGGGTKLEIKR
modifications: N-glycosylation site in heavy chain CDR1 created by S29N, confirmed biophysically
B6: the equilibrium dissociation constant (Kd) worked out at 0.0073 nM with mouse IL-25 (NS0), 0.168 nM with Mouse (NSO) and 0.17 nM with Cyno Monkey (HEK).

B7: ABM125 (Chimera) (antibody, V domains shown)
VH: B6 VH
VL: B6 VL
modifications: N-glycosylation site in heavy chain CDR1 created by S29N, confirmed biophysically
Regarding B7, the Kd stood at 0.0053 nM in [2] and 0.128 nM in [1].
